Measured values taken from paper PMC3834253, “Attenuation of VEGFR-2 Expression by sFlt-1 and Low Oxygen in Human Placenta” (PLoS ONE, 2013).

Target: T1, Vascular endothelial growth factor receptor 2 (VEGFR-2) (human (endogenous in placenta), UniProt P35968 20-1356)
T1 construct: VEGF receptor-2 (VEGFR-2, also known as KDR), human, endogenous in placental tissue; precipitated with a monoclonal VEGFR-2 antibody (Cell Signaling Technology); Endogenous receptor in frozen placental tissue lysates; bait of the co-immunoprecipitation; also called VEGF receptor-2; KDR; source: endogenous, human placental tissue lysate
Assay: co-IP; human placental tissue lysates (8, 12 and 35 weeks of gestation; preeclamptic placentae), 500 ug protein, precleared with Protein-A Agarose, precipitated with 1 ug monoclonal VEGFR-2 antibody overnight at 4 C, washed 3 times in ice cold RIPA buffer, blotted for sFlt-1
Conditions: partners not purified

T1 sequence (P35968 20-1356): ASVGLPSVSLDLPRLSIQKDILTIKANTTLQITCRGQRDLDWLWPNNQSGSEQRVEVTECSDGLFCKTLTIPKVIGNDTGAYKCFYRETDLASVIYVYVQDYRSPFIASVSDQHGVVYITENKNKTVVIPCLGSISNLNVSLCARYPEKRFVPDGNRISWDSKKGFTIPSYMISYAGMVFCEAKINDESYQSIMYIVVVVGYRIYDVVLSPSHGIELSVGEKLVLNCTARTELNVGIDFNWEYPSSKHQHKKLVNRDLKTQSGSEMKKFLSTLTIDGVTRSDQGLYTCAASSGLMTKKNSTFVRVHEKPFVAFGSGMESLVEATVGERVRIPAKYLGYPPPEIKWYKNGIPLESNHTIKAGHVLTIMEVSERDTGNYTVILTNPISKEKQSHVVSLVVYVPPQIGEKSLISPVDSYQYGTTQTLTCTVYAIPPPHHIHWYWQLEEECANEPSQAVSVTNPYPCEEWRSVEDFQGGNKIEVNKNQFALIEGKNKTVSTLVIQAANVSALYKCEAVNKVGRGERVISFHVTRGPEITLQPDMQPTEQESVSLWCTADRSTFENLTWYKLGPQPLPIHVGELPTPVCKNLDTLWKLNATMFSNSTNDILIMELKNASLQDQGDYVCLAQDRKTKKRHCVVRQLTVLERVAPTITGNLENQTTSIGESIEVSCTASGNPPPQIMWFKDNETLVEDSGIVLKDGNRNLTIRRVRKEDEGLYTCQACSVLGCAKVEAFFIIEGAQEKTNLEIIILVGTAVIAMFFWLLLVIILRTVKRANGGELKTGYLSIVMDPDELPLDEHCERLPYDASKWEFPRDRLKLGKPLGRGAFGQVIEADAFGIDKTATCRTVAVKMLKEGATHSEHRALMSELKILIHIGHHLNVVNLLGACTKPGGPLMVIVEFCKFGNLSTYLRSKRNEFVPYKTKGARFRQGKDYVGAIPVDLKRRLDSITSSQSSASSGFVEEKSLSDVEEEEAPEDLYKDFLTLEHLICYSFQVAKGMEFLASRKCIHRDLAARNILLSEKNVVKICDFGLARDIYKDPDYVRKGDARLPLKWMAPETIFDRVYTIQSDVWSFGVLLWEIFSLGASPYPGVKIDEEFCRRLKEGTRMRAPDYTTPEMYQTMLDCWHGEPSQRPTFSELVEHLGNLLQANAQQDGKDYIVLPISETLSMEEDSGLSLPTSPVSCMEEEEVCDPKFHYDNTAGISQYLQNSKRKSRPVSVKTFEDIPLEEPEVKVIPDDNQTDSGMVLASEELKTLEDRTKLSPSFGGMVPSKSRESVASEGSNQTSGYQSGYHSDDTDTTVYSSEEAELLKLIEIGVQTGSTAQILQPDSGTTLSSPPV

B1: soluble VEGF receptor-1 (sFlt-1), 105 kDa species (sFlt-13) (natural protein, human (endogenous in placenta), UniProt P17948-2 27-687, looked up)
chain: SKLKDPELSLKGTQHIMQAGQTLHLQCRGEAAHKWSLPEMVSKESERLSITKSACGRNGKQFCSTLTLNTAQANHTGFYSCKYLAVPTSKKKETESAIYIFISDTGRPFVEMYSEIPEIIHMTEGRELVIPCRVTSPNITVTLKKFPLDTLIPDGKRIIWDSRKGFIISNATYKEIGLLTCEATVNGHLYKTNYLTHRQTNTIIDVQISTPRPVKLLRGHTLVLNCTATTPLNTRVQMTWSYPDEKNKRASVRRRIDQSNSHANIFYSVLTIDKMQNKDKGLYTCRVRSGPSFKSVNTSVHIYDKAFITVKHRKQQVLETVAGKRSYRLSMKVKAFPSPEVVWLKDGLPATEKSARYLTRGYSLIIKDVTEEDAGNYTILLSIKQSNVFKNLTATLIVNVKPQIYEKAVSSFPDPALYPLGSRQILTCTAYGIPQPTIKWFWHPCNHNHSEARCDFCSNNEESFILDADSNMGNRIESITQRMAIIEGKNKMASTLVVADSRISGIYICIASNKVGTVGRNISFYITDVPNGFHVNLEKMPTEGEDLKLSCTVNKFLYRDVTWILLRTVNNRTMHYSISKQKMAITKEHSITLNLTIMNVSLQDSGTYACRARNVYTGEEILQKKEITIRGEHCNKKAVFSRISKFKSTRNDCTTQSNVKH
notes: sFlt-1, truncated soluble splice variant of VEGFR-1 (six extracellular IgG like domains with a unique C-terminus), human; isoform assigned by the authors from the band size; Detected by blot with an sFlt-1 antibody (AF321, R&D Systems) in VEGFR-2 immunoprecipitates; also called soluble VEGFR-1; source: endogenous, human placental tissue lysate
With B1 the “fold co-immunoprecipitated sFlt-1 (densitometry), PE over PTC placentae” value was 5.98 fold.
